According to the supplement of paper PMC9170038:

Test system: MS2 coat protein
Experiment: apparent KD of MS2 coat protein; designed switch direction (-1 OFF switch, 1 ON switch): -1; higher = weaker reporter binding
Summary of the method: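 SNAP-549-labelled MS2 coat protein was titrated, doubling from 0.7 or 1.5 nM to 3 µM, over designed RNA switches transcribed on Illumina chips by stalled E. coli RNA polymerase. Runs were done without input, with 200 uM small-molecule ligand, or with an oligonucleotide input. Apparent KD is the per-design median over clusters of curve-fitted normalised fluorescence.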

[1] = Eterna round: R95, input ligand: FMN 200 uM
[2] = Eterna round: R95, input ligand: microRNA oligo, concentration not stated
[3] = Eterna round: R95, input ligand: none
[4] = input ligand: microRNA oligo, concentration not stated

Sequence | apparent KD of MS2 coat protein [1] [nM] | apparent KD of MS2 coat protein [2] [nM] | apparent KD of MS2 coat protein [3] [nM] | apparent KD of MS2 coat protein (input ligand: FMN 200 uM) [nM] | apparent KD of MS2 coat protein [4] [nM] | apparent KD of MS2 coat protein (input ligand: none) [nM]
CAUGGAUGUGAGCCGCAUUACAUGAGGAUCACCCAUGUCAACAAGCUUUUUGCUUGUCUUACGCGGCGGCAUCAAAA [Geonso] (puzzle: Sensor v3, turn-off variant 1) | 12 | 9.86 | 10.3 |  |  | 
CAUGGAUGUGAGCCGCAUUACAUGAGGAUCACCCAUGUCAACAAGCUUUUUGCUUGUCUUACGCGGCGGCAUCUAAA [Abebies] (puzzle: Sensor v3, turn-off variant 1) | 11.3 | 8.44 | 10.3 |  |  | 
CAUGUCCAACGAGGAUAUGGGACAGGAGGUGUACCAGAAGGCGUACGGACAUGAGGAUCACCCAUGUCGCGCGGUGCGAUGUGG [15th something] (Eterna round: R96, puzzle: Exclusion NG 1) |  |  |  | 98.9 | 39.8 | 62.8
CAUGUGUAAGGAUAUGACAAUGGUAUCGAAAGAUACCAUUGUCAGAAGGUACAUGAGGAUCACCCAUGUGGAUC [Ex4-3: 18] (puzzle: Exclusion 4) |  | 199 |  |  |  | 
CAUUAGCAAGCGAGAUCCCACAUGAGGAUCACCCAUGUGCUCGUCUUAUAAGGUACUGUGACGAUAGUCACGGUACC [Mat - Sensor, turn-off var - Eli Mod - D41] (Eterna round: R97, puzzle: Sensor, turn-off variant 1) |  |  |  | 17.1 |  | 14.3
CAUUGUUAUCGAGGAUAUCGUAUUGAGAUUCUACGAGAAGGCGGACUAAACAUGAGGAUCACCCAUGUGGGACGGAUGCUUGGG [Ex NG1 #31] (Eterna round: R96, puzzle: Exclusion NG 1) |  |  |  | 30.7 | 25.8 | 28.1
CAUUUGUGAGGAUAUCAGGUGUGCUAGCGUACUGGUACAUCUGAGAAGGCACAUGAGGAUCACCCAUGUUCCUU [Mat - Exclusion 4 - Mod of JL - D36] (puzzle: Exclusion 4) |  | 12.8 |  |  |  | 
CCAAAGCGAGGAUAUACUUGCGACCCAAGCGUGGAAGACAUACUUGAGGAUCACCCAAGUAGAAGGCGCGCCAA [Dibixela] (Eterna round: R97, puzzle: Exclusion 2) |  |  |  | 145 |  | 92
CCAAAGUCAGGAUAUGUGCGUUAAAAGCCGUACGUAACGACACAGAAGGGACAUGAGGAUCACCCAUGUUGGUG [Eternabot (Original) Solution 13] (Eterna round: R97, puzzle: Exclusion 4) |  |  |  | 96.7 |  | 979
CCAAGAAUAGGAUAUACAACAUGCCAGCUUCUUUACAUCGCACAUGAGGAUCACCCAUGUAGAAGGGUUCUCUG [Exclusion-2-#15] (Eterna round: R97, puzzle: Exclusion 2) |  |  |  | 182 |  | 209
CCAAGCUACUUCAUUAUCCACAUGAGGAUCACCCAUGUCUAGGCAAUUAUGACCUGCCCGUCAGGAGCUCGUCUUAU [Sensor-V1 #40] (Eterna round: R97, puzzle: Sensor, turn-off variant 1) |  |  |  | 35.1 |  | 28.7
CCAAGCUGUGUGAGGAUAUGCUGGUCGAAAGAUCAGCAGAAGGCACAUGAGGAUCACCCAUGUGAAAAGCUUGG [Mat - Exclusion 4 - JL Mod - D93] (puzzle: Brourd's mod of Exclusion 4) |  | 16.3 |  |  |  | 
CCAAGCUUAUUCAUUAACAACAUGAGGAUCACCCAUGUAUAGGCAAUUAUGACUGGGCUCUUUAGUGCUCGUCUUAU [Sensor-V1 #25] (Eterna round: R97, puzzle: Sensor, turn-off variant 1) |  |  |  | 16.2 |  | 14.7
CCAAGCUUUUUCAUUAACAACAUGAGGAUCACCCAUGUGUAAGCUAUUAGGUUUGGGCUCUUUAGUGCUCGUCUUAU [JR_STOV1_Sub041] (Eterna round: R97, puzzle: Sensor, turn-off variant 1) |  |  |  | 14.5 |  | 13.5
CCACUUACUGAGGAUAUUGCAUCACCCGACUGAUAAGAAGGCAGAACAUGAGGAUCACCCAUGUGGGUACUCAC [Bingo-Bango-9] (Eterna round: R97, puzzle: Exclusion 6) |  |  |  | 207 |  | 155
CCAGACGCUGUGAGGAUAUGAAAAGGUGCUGCUUUUUAGAAGGCACAUGAGGAUCACCCAUGUGGUACCUCGGG [Eternabot (L1) Solution 20] (Eterna round: R97, puzzle: Brourd's mod of Exclusion 4) |  |  |  | 397 |  | 514
CCAGAGAGCGAAGGAUAUUCUGUUCAAUGGGUCGACCUAGACAUGAGGAUCACCCAUGUCGCCCGGGAGAAGGUCGCAAGGAUC [Eternabot solution 18] (Eterna round: R96, puzzle: Exclusion NG 2) |  |  |  | 18.7 | 13.3 | 18.4

Sequence | apparent KD of MS2 coat protein [1] [nM] | apparent KD of MS2 coat protein [2] [nM] | apparent KD of MS2 coat protein [3] [nM] | apparent KD of MS2 coat protein (input ligand: FMN 200 uM) [nM] | apparent KD of MS2 coat protein [4] [nM] | apparent KD of MS2 coat protein (input ligand: none) [nM]
CCAGCGUGUGUGAGGAUAUGCUGGUCCUUGGAUCAGCAGAAGGCACAUGAGGAUCACCCAUGUGAGAGCGUUGG [JL bmx4 3.36] (puzzle: Brourd's mod of Exclusion 4) |  | 20.7 |  |  |  | 
CCAGGCAGUGUGAGGAUAUGCUGGUGCAUACAUCAGCAGAAGGCACAUGAGGAUCACCCAUGUGAAGAGCUUGG [Mat - Exclusion 4 - JL Mod - D98] (puzzle: Brourd's mod of Exclusion 4) | 179 | 16.9 | 27.5 |  |  | 
CCAGUACGAGGAUAUACAUGAGGAUCACCCAUGUAAAUUGCCACGUCUUGGACGUCAUGUAGAAGGCGUUGGAA [EX3 C.1] (Eterna round: R97, puzzle: Exclusion 3) |  |  |  | 15.2 |  | 14.3
CCAUAUAACACAGGAUAUCAUCGCAACUGACGUUGAGAAGGGUGACAUGAGGAUCACCCAUGUGAUUUCUCAAUAUUAUACAUC [Prohibition 81 - Jieux - Exclusion NG 1] (Eterna round: R96, puzzle: Exclusion NG 1) |  |  |  | 1040 | 661 | 1110
CCAUAUAGGAGAGGAUAUACGCACCACUAACUAGUAGAAGGCUCACAUGAGGAUCACCCAUGUGAUUUCUCAAUAUUAUACAUC [Prohibition 73 - Jieux - Exclusion NG 1] (Eterna round: R96, puzzle: Exclusion NG 1) |  |  |  | 50.3 | 25.6 | 34.8
CCAUCCAGUGUGAGGAUAUGCUGGUCCUUGGAUCAGCAGAAGGCACAUGAGGAUCACCCAUGUGAAUAGGAUGG [Mat - Exclusion 4 - JL Mod - D85] (puzzle: Brourd's mod of Exclusion 4) | 153 | 18.9 | 24.1 |  |  | 
CCAUCGUGUGUGAGGAUAUGCUGGUCCUUGGAUCAGCAGAAGGCACAUGAGGAUCACCCAUGUGAAAACGGUGG [Mat - Exclusion 4 - JL Mod - D86] (puzzle: Brourd's mod of Exclusion 4) | 67 | 22.3 | 23.9 |  |  | 
CCAUCGUGUGUGAGGAUAUGCUGGUCCUUGGAUCAGCAGAAGGCACAUGAGGAUCACCCAUGUGAAGACGGUGG [JL bmx4 3.22] (puzzle: Brourd's mod of Exclusion 4) | 48.7 | 17.4 | 24.2 |  |  | 
CCAUCUCUAGUAGGAUAUGUCGGAUAUGUUGUUGAGGUUCACCCAACGACGUCAAUGACAGAAGGACAGAAGGACUCUCGAUGC [pwkr exNG2 2xFMN 1xF5.6] (Eterna round: R96, puzzle: Exclusion NG 2) |  |  |  | 114 | 463 | 183
CCAUGUCCAGAGGAUAUGUAGCGGAUAACCGCAACAGAAGGCUGGACAUGAGGAUCACCCAUGUGCGCCUUCCA [Vege] (Eterna round: R97, puzzle: Exclusion 6) |  |  |  | 313 |  | 534
CCAUUCAGAGGAUAUGCGCAUAAAUAAAACUUUUUUUUUUAACAUGAGGAUCACCCAUGUAGAAGGCUGUAACC [Ex2 #45] (Eterna round: R97, puzzle: Exclusion 2) |  |  |  | 27.2 |  | 26.7
CCCAGUUAGGAAGGAUAUUGUACAUGAGGAUCACCCAUGUAAUAAAUGAGGAUCUCGGGUGUCUACAAGAAGGUCCGGAUAGGC [Ostracism 12 - Jieux - Exclusion NG 2] (Eterna round: R96, puzzle: Exclusion NG 2) |  |  |  | 104 | 38.7 | 46.4
CCCGCAGGCUUUUUGCUCGACAUGAGGAUCACCCAUGUUGUAUGGGUUGUGUGUGUGUGGUGCAUAUAUAUGGUCCU [-25.6, -50.1 kcal, A 16%] (Eterna round: R97, puzzle: Sensor, turn-off variant 1) |  |  |  | 313 |  | 469
CCCGCAGGUUUUUUGCUCGACAUGAGGAUCACCCAUGUUGCGUGGGUUGUGUGUGUGCGGUGUAUAUAUAUGGUCCU [-24.5, -48 kcal, A 14%] (Eterna round: R97, puzzle: Sensor, turn-off variant 1) |  |  |  | 305 |  | 371
CCCGCGGGCGCAGGAUAUACAUGAGGAUCACCCAUGUGCCGCGCAAGCGGCAGAGCGGACAACGGGUAGAAGGGCGCCCGCGGG [first try] (Eterna round: R96, puzzle: Exclusion NG 2) |  |  |  | 875 | 202 | 492
CCCGUGUGAGGAUAUCGUUCACUUGGCGAAAGUCGAGUGGACGAGAAGGUACAUGAGGAUCACCCAUGUGCGGG [-36.1, -35.4 kcal, A 24%] (Eterna round: R97, puzzle: Exclusion 4) |  |  |  | 155 |  | 134
